Test results: patent publication US20250367269A1, “KYNURENINE AMINOTRANSFERASE AND PRODUCTS THEREOF FOR THE TREATMENT OF ARTHRITIC DISEASES” (Institut National de Recherche Pour L'Agriculture, …, priority 2022, published 2025)

Key:
[1] = system: collagen-antibody induced arthritis; experiment: collagen-antibody induced arthritis model; assay type: in vivo, C57BL6J male mice
Procedure: C57BL6J male mice were injected intraperitoneally with a cocktail of arthritogenic anti-type II collagen (2 mg/mouse) at day 0. At day 3, mice received an injection of lipopolysaccharide from bacterial cells walls of E. coli 055: B5. The severity of arthritis was evaluated every other day on each paw with a score from 0 to 4, for a maximal score of 16 by animal (0=normal joint, 1=moderate redness and slight swelling or swelling of one or two digits, 2=moderate redness and moderate paw swelling or swelling more than three digits, 3=redness and swelling from tarsal joints to metatarsal joints, 4=severe redness and severe swelling of the entire paw). Hindpaw swelling was measured at the same time by plethysmography. Paw volume determined prior to disease induction was used as the baseline. The development of arthritis was analyzed by histological assessment. Hindpaws were dissected then fixed in 4% formalin (Labonord). Hindpaws were further decalcified in 10% EDTA for 1 month and embedded in paraffin blocks. Five μm-thick tissue sections were cut and two stainings were performed, hematoxylin, eosin and toluidine blue. Histological examination was carried out blindly by three independent observers. Synovium from ankle joint was graded on a scale of 0 to 3 (with 0=normal and 3=major changes) for synovial hyperplasia (width of lining layer) and tissue cell infiltration. […]

[2] = AADAT activity test (transformation of KYNU into KYNA and XANA); assay type: biochemical; settings: 15 min in the presence of KYNU (1000 μM), FIG. 3F
Procedure: The activity test is based on the disappearance of kynurenine and 3-hydroxykynurenin which are substrates of AADAT. A reaction mixture (50 μL final volume) containing 10 mM L-kynurenine or 3-hydroxykynurenin, 2 mM α-oxoglutarate, 40 μM PLP (pyridoxal 5′-phosphate) and 0 or 1 μL of the purified protein sample prepared in buffer 100 mM potassium phosphate (pH 7.4). Then, the mixture was incubated at 37° C. for 15 min, and the reaction was stopped by the addition of an equal volume of 30% acetic acid. The supernatant of the reaction mixture, obtained by centrifugation at 3000 g for 10 min at 4° C., was mixed equally with Ehrlich's solution and incubated 15 min at room temperature to have a colorimetric reaction. In parallel, a standard range of kynurenine or 3-hydroxykynurenin from 0 μM to 1000 μM was made under the same conditions. The amount of kynurenine or 3-hydroxykynurenin present in the sample was measured with a spectrophotometer at an OD of 492 nm and calculated using the standard range (FIG. 3E). A verification of the production of KYNA and XANA in vitro via the action of our enzyme during 15 min in the presence of KYNU (1000 μM) was carried out (FIG. 3F).

B1: AADAT: Recombinant murine alpha-aminoadipate aminotransferase (SEQ ID NO:13) produced in E. coli and purified by affinity chromatography (protein, listed as Mus musculus)
chain: MNYSRFLTATSLARKPSPIRTTADILSKAPKTLISLAPGSPNPSMFPFKSAAFTVENGSTIRFEDDLIKRALQYSPSYGIPELLSWLKQFQVKLHNPPTVNYPPNQGQMDLCITSGCQDGLCKAFEMLINPGDTILVNEPLFPGTLYAMKPLGCNIINVPSDEHGIIPEGLKKILSQWKPEDSKDPTKKTPKFLYTVPNGNNPTGNSLTGDRKKEIYELARKYDFLIIEDDPYYFLQFSKPWEPTFLSMDVDGRVIRADTFSKTVSSGLRVGFMTGPKTLIQNIVLHTQVSSVHACTLSQLMILQLLHQWGEEGFLAHIDRTIDFYKNQRDSILAAADKWLRGLAEWHVPKAGMFLWIKVKGISDTKQLIEEKAIEREVLLVPGNGFFIDGSAPTSFFRASFSLATPAQMDTAFQRLAQLIKESL
arthritis severity ([1]; daily i.p. recombinant AADAT ~50 μg/d vs vehicle, confirmed by oedema swelling measure and histology (FIG. 4)): drastically reduced | maximal clinical score mean ([1]; score 0 to 4 per paw, maximal 16 by animal, daily i.p. recombinant AADAT ~50 μg/d, 2 experiments, 8 mice per group, vehicle 6.9): 2.6 | transformation of KYNU into KYNA and XANA in vitro [2]: dose effect can be observed
